Molecular target: integrin αvβ5 on human colon adenocarcinoma HT-29 cells (human (endogenous in HT-29)) (UniProt P06756)
Chain of UniProt P06756 (P06756 31-1048, chain 1 of 2): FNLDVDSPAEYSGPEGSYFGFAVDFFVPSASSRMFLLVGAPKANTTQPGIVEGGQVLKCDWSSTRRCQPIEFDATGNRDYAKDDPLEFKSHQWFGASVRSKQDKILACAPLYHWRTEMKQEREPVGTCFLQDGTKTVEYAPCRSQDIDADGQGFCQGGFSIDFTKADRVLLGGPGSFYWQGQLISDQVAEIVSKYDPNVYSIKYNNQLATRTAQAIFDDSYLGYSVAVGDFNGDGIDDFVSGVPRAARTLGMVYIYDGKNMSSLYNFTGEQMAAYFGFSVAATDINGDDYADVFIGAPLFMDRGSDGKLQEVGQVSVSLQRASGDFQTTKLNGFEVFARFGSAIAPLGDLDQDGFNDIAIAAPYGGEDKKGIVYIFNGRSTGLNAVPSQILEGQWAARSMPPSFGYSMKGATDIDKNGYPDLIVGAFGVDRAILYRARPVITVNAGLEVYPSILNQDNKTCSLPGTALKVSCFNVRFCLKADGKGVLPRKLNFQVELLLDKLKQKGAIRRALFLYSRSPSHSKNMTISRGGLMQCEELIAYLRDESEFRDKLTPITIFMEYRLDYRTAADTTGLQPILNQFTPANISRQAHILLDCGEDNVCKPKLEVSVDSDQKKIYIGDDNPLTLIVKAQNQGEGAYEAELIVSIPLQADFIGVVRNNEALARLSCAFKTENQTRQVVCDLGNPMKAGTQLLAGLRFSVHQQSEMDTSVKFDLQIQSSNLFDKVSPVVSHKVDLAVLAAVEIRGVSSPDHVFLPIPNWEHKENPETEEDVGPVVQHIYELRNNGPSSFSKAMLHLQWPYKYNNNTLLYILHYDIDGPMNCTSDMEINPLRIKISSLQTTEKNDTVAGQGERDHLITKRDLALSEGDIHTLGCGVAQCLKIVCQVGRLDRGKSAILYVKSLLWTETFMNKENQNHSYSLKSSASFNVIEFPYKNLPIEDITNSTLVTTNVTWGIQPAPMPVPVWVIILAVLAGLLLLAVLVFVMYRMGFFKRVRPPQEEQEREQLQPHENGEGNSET
Chain of UniProt P06756 (P18084 24-799, chain 2 of 2, further chain): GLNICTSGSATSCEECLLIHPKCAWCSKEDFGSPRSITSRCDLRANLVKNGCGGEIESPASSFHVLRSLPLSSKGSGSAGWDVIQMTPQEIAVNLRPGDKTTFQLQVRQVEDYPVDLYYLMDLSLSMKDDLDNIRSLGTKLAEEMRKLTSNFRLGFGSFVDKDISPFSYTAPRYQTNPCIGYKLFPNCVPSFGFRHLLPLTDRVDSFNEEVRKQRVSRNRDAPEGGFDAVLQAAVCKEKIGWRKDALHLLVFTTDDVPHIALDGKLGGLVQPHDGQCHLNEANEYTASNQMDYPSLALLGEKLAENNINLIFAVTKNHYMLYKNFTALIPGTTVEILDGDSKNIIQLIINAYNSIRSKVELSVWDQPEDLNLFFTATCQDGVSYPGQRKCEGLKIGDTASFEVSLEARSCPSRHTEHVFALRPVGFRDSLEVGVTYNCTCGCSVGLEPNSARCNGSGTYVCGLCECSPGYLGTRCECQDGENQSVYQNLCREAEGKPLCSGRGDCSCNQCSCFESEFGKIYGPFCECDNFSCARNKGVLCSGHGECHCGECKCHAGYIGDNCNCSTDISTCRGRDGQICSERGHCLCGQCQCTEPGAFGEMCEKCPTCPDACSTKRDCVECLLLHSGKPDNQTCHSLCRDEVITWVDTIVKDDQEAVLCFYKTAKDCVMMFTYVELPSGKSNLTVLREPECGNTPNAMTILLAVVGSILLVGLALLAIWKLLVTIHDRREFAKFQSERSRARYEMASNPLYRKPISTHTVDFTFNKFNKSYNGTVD

Echistatin (Ech), recombinant wild type with 6xHis-tag (natural protein)
IC50 of inhibition of HT29 cell adhesion to immobilized vitronectin (blocks αvβ5 with vitronectin): 286 nM

Source: article PMC7695343
